Positions count from the first letter of the chain named.
B1: toripalimab Fab L.V99M (Fab, V domains shown)
VH: QGQLVQSGAEVKKPGASVKVSCKASGYTFTDYEMHWVRQAPIHGLEWIGVIESETGGTAYNQKFKGRVTITADKSTSTAYMELSSLRSEDTAVYYCAREGITTVATTYYWYFDVWGQGTTVTVSS
VL: DVVMTQSPLSLPVTLGQPASISCRSSQSIVHSNGNTYLEWYLQKPGQSPQLLIYKVSNRFSGVPDRFSGSGSGTDFTLKISRVEAEDVGVYYCFQGSHMPLTFGQGTKLEIK
notes: as the heavy chain of Sm3; light chain of Sm3 with this change; numbers count from the chain's first residue; source: Brevibacillus, culture supernatant (ammonium sulfate precipitate); not shown: 6xHis, C-terminal, kept; 6xHN, C-terminal, kept
B2: toripalimab Fab L.V99N (Fab, V domains shown)
VH: B1 VH
VL: B1 VL with M99N
notes: as for B1
B3: toripalimab Fab L.V99P (Fab, V domains shown)
VH: B1 VH
VL: B1 VL with M99P
notes: as for B1
B4: toripalimab Fab L.P100S (Fab, V domains shown)
VH: B1 VH
VL: B1 VL with M99V, P100S
notes: as for B1
B5: toripalimab Fab L.P100D (Fab, V domains shown)
VH: B1 VH
VL: B1 VL with M99V, P100D
notes: as for B1
B6: toripalimab Fab L.P100G (Fab, V domains shown)
VH: B1 VH
VL: B1 VL with M99V, P100G
notes: as for B1
B7: toripalimab Fab L.P100W (Fab, V domains shown)
VH: B1 VH
VL: B1 VL with M99V, P100W
notes: as for B1
B8: toripalimab Fab L.P100N (Fab, V domains shown)
VH: B1 VH
VL: B1 VL with M99V, P100N
notes: as for B1
B9: toripalimab Fab L.V99W (Fab, V domains shown)
VH: B1 VH
VL: B1 VL with M99W
notes: as for B1
B10: toripalimab Fab H.E52Y (Fab, V domains shown)
VH: B1 VH with E52Y
VL: B1 VL with M99V
notes: heavy chain of Sm3 with this change; numbers count from the chain's first residue; as the light chain of Sm3; source: Brevibacillus, culture supernatant (ammonium sulfate precipitate); not shown: 6xHis, C-terminal, kept; 6xHN, C-terminal, kept
B11: toripalimab Fab L.P100E (Fab, V domains shown)
VH: B1 VH
VL: B1 VL with M99V, P100E
notes: as for B1
B12: toripalimab Fab L.P100T (Fab, V domains shown)
VH: B1 VH
VL: B1 VL with M99V, P100T
notes: as for B1
B13: toripalimab Fab L.P100M (Fab, V domains shown)
VH: B1 VH
VL: B1 VL with M99V, P100M
notes: as for B1
B14: toripalimab Fab L.P100Q (Fab, V domains shown)
VH: B1 VH
VL: B1 VL with M99V, P100Q
notes: as for B1
B15: toripalimab Fab L.P100A (Fab, V domains shown)
VH: B1 VH
VL: B1 VL with M99V, P100A
notes: as for B1
B16: toripalimab Fab L.V99Q (Fab, V domains shown)
VH: B1 VH
VL: B1 VL with M99Q
notes: as for B1
B17: toripalimab Fab L.P100R (Fab, V domains shown)
VH: B1 VH
VL: B1 VL with M99V, P100R
notes: as for B1
B18: toripalimab Fab L.V99Y (Fab, V domains shown)
VH: B1 VH
VL: B1 VL with M99Y
notes: as for B1
B19: toripalimab Fab L.P100H (Fab, V domains shown)
VH: B1 VH
VL: B1 VL with M99V, P100H
notes: as for B1
B20: toripalimab Fab L.P100L (Fab, V domains shown)
VH: B1 VH
VL: B1 VL with M99V, P100L
notes: as for B1
B21: toripalimab Fab L.P100V (Fab, V domains shown)
VH: B1 VH
VL: B1 VL with M99V, P100V
notes: as for B1
B22: toripalimab Fab H.S53A (Fab, V domains shown)
VH: B1 VH with S53A
VL: B1 VL with M99V
notes: as for B10
B23: toripalimab Fab L.V99S (Fab, V domains shown)
VH: B1 VH
VL: B1 VL with M99S
notes: as for B1
B24: toripalimab Fab L.P100K (Fab, V domains shown)
VH: B1 VH
VL: B1 VL with M99V, P100K
notes: as for B1
B25: toripalimab Fab L.P100I (Fab, V domains shown)
VH: B1 VH
VL: B1 VL with M99V, P100I
notes: as for B1
B26: toripalimab Fab L.P100F (Fab, V domains shown)
VH: B1 VH
VL: B1 VL with M99V, P100F
notes: as for B1

Molecular target: T1, mouse programmed cell death protein 1 Fc fusion protein (mPD-1-Fc), mPD-1 C60S (aa 25-167) (Mus musculus, UniProt Q02242, stabilised)
T1 construct: not cleaved; source: Expi293F, purified (Protein A, SEC; dimeric fraction); not shown: Fc (human), C-terminal, kept
Assay: SPR; Carterra LSA; Fab from the ammonium sulfate precipitate of the culture supernatant immobilised on a NiHC200M chip; hPD-1 (1-1024 nM) or mPD-1-Fc (4-1024 nM) as analyte, fourfold dilution series, no regeneration; HBS-EP pH 7.4, 25 °C; medians over the spots of a construct, KD = koff/kon
Details: one partner purified
In short: (§1)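 Human PD-1 (1–1024 nM) or mouse PD-1-Fc (4–1024 nM), in fourfold series, was flowed without regeneration over Fabs captured in duplicate on a NiHC200M chip (Carterra LSA, 25 °C), using 10 min association and 5 min dissociation. The Fabs had been recovered from Brevibacillus culture supernatants by ammonium sulfate precipitation and redissolved in HBS-EP. For binding constants, KD was defined as koff/kon from per-construct medians, with rates fitted by the kdka model under slow- or fast-dissociation settings (best fit) and unconfirmed binders set to kon 10^3 […] and koff 10^−2 s^−1.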

Row | Binder | Kd | koff | kon
1 | B1 | 590 nM | 0.00702 s⁻¹ | 11900 M⁻¹ s⁻¹
2 | B2 | 169 nM | 0.00665 s⁻¹ | 39400 M⁻¹ s⁻¹
3 | B3 | 24.7 nM | 0.0007 s⁻¹ | 28300 M⁻¹ s⁻¹
4 | B4 | 45.9 nM | 0.00105 s⁻¹ | 22900 M⁻¹ s⁻¹
5 | B5 | 47.4 nM | 0.00142 s⁻¹ | 30100 M⁻¹ s⁻¹
6 | B6 | 22.8 nM | 0.000384 s⁻¹ | 16800 M⁻¹ s⁻¹
7 | B7 | 3.6 nM | 3.39e-05 s⁻¹ | 9410 M⁻¹ s⁻¹
8 | B8 | 15.9 nM | 0.0003 s⁻¹ | 18900 M⁻¹ s⁻¹
9 | B9 | 254 nM | 0.0065 s⁻¹ | 25600 M⁻¹ s⁻¹
10 | B10 | 600 nM | 0.149 s⁻¹ | 247000 M⁻¹ s⁻¹
11 | B11 | 19.8 nM | 0.000491 s⁻¹ | 24800 M⁻¹ s⁻¹
12 | B12 | 19.4 nM | 0.000259 s⁻¹ | 13400 M⁻¹ s⁻¹
13 | B13 | 8.48 nM | 0.000121 s⁻¹ | 14200 M⁻¹ s⁻¹
14 | B14 | 8.31 nM | 9.77e-05 s⁻¹ | 11800 M⁻¹ s⁻¹
15 | B15 | 89.8 nM | 0.00349 s⁻¹ | 38900 M⁻¹ s⁻¹
16 | B16 | 445 nM | 0.0167 s⁻¹ | 37600 M⁻¹ s⁻¹
17 | B17 | 24.7 nM | 0.000274 s⁻¹ | 11100 M⁻¹ s⁻¹
18 | B18 | 576 nM | 0.0369 s⁻¹ | 63900 M⁻¹ s⁻¹
19 | B19 | < 1.06 nM | < 1e-05 s⁻¹ | 9460 M⁻¹ s⁻¹
20 | B20 | 9.99 nM | 0.000147 s⁻¹ | 14700 M⁻¹ s⁻¹
21 | B21 | 30.1 nM | 0.000479 s⁻¹ | 15900 M⁻¹ s⁻¹
22 | B22 | 94 nM | 0.00411 s⁻¹ | 43700 M⁻¹ s⁻¹
23 | B23 | 4.51 nM | 6.95e-05 s⁻¹ | 15400 M⁻¹ s⁻¹
24 | B24 | 60.6 nM | 0.000824 s⁻¹ | 13600 M⁻¹ s⁻¹
25 | B25 | 23.2 nM | 0.000324 s⁻¹ | 13900 M⁻¹ s⁻¹
26 | B26 | < 1.08 nM | < 1e-05 s⁻¹ | 9270 M⁻¹ s⁻¹

Molecular target: T2, human programmed cell death protein 1 (hPD-1) C93S (aa 24-167) (Homo sapiens, UniProt Q15116, C93S)
T2 construct: made as a fusion with a TEV site and human Fc; the Fc was cut off with TEV protease; source: Expi293F, purified (Protein A, TEV cleavage of Fc, SEC; monomer fractions); not shown: Fc (human), C-terminal, cleaved
T2 sequence (Q15116 24-167 C93S): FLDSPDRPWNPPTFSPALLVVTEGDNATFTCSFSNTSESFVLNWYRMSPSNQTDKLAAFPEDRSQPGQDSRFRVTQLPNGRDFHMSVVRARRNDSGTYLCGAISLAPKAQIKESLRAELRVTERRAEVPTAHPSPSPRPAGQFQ
Assay: as above
Details: one partner purified
In short: as §1

Row | Binder | Kd | koff | kon
27 | B1 | 1.43 nM | 3.17e-05 s⁻¹ | 22100 M⁻¹ s⁻¹
28 | B2 | 3.03 nM | 5.61e-05 s⁻¹ | 18500 M⁻¹ s⁻¹
29 | B3 | 19.8 nM | 0.000192 s⁻¹ | 9660 M⁻¹ s⁻¹
30 | B4 | < 1.59 nM | < 1e-05 s⁻¹ | 6280 M⁻¹ s⁻¹
31 | B5 | < 1.32 nM | < 1e-05 s⁻¹ | 7580 M⁻¹ s⁻¹
32 | B6 | 4.99 nM | 3.76e-05 s⁻¹ | 7550 M⁻¹ s⁻¹
33 | B7 | < 1.54 nM | < 1e-05 s⁻¹ | 6510 M⁻¹ s⁻¹
34 | B8 | 1.39 nM | 2.33e-05 s⁻¹ | 16800 M⁻¹ s⁻¹
35 | B9 | 45.3 nM | 0.000522 s⁻¹ | 11500 M⁻¹ s⁻¹
36 | B10 | 49.4 nM | 0.000629 s⁻¹ | 12700 M⁻¹ s⁻¹
37 | B11 | < 0.554 nM | < 1e-05 s⁻¹ | 18100 M⁻¹ s⁻¹
38 | B12 | 1.24 nM | 1.18e-05 s⁻¹ | 9480 M⁻¹ s⁻¹
39 | B13 | 3.81 nM | 5.38e-05 s⁻¹ | 14100 M⁻¹ s⁻¹
40 | B14 | 9.25 nM | 7.95e-05 s⁻¹ | 8600 M⁻¹ s⁻¹
41 | B15 | < 0.513 nM | < 1e-05 s⁻¹ | 19500 M⁻¹ s⁻¹
42 | B16 | 8.06 nM | 6.39e-05 s⁻¹ | 7930 M⁻¹ s⁻¹
43 | B17 | 2.13 nM | 1.32e-05 s⁻¹ | 6230 M⁻¹ s⁻¹
44 | B18 | 5.01 nM | 0.000155 s⁻¹ | 30900 M⁻¹ s⁻¹
45 | B19 | 2.24 nM | 1.56e-05 s⁻¹ | 6960 M⁻¹ s⁻¹
46 | B20 | 13.8 nM | 0.000129 s⁻¹ | 9280 M⁻¹ s⁻¹
47 | B21 | 7.83 nM | 6.3e-05 s⁻¹ | 8040 M⁻¹ s⁻¹
48 | B22 | < 1.27 nM | < 1e-05 s⁻¹ | 7880 M⁻¹ s⁻¹
49 | B23 | < 1.16 nM | < 1e-05 s⁻¹ | 8660 M⁻¹ s⁻¹
50 | B24 | 7.78 nM | 5.19e-05 s⁻¹ | 6670 M⁻¹ s⁻¹
51 | B25 | 12.3 nM | 8.88e-05 s⁻¹ | 7200 M⁻¹ s⁻¹
52 | B26 | 9 nM | 6.35e-05 s⁻¹ | 7060 M⁻¹ s⁻¹
